According to US20210047398A1, “ASPROSIN, A FAST-INDUCED GLUCOGENIC PROTEIN HORMONE” (Baylor College of Medicine, priority 2016, published 2021):

Columns and labels:
AgRP neurons = assay: Whole-cell patch clamp recordings on AgRP neurons; assay type: cell-based, mice
Protocol: (§1) Electrophysiology—Whole-cell patch clamp recordings were performed on identified AgRP neurons or POMC neurons in the brain slices containing the arcuate nucleus of the hypothalamus (ARH). In particular, to identify AgRP neurons, the inventors crossed Rosa26-tdTOMATO allele onto the regular AgRP-Cre mice (Tong et al., 2008) to generate AgRP-Cre/Rosa26-tdTOMATO mice, which express TOMATO selectively in AgRP/NPY neurons. In some studies, the inventors crossed NPY-GFP mice (Pinto et al., 2004) with NPS mice to generate NPY-GFP mice with or without the NPS mutation, and GFP-labelled neurons in the arcuate nucleus were recorded. In order to record POMC neurons, the inventors crossed Rosa26-tdTOMATO allele onto the POMC-CreERT2 mice (Berglund et al., 2013) to generate POMC-CreERT2/Rosa26-tdTOMATO mice, which express TOMATO selectively in mature POMC neurons upon tamoxifen induction (0.2 mg/g, i.p. 6 weeks of age). In some studies, the inventors also crossed the AgRP-DTR allele onto POMC-GFP mice, and these mice received DT or saline injections (described above) to generate mice with or without AgRP neurons ablated.
(§2) Six to twelve-week old mice were deeply anesthetized with isoflurane and transcardially perfused with a modified ice-cold sucrose-based cutting solution (pH 7.3) containing 10 mM NaCl, 25 mM NaHCO3, 195 mM Sucrose, 5 mM Glucose, 2.5 mM KCl, 1.25 mM NaH2PO4, 2 mM Na-Pyruvate, 0.5 mM CaCl2, and 7 mM MgCl2, bubbled continuously with 95% O2 and 5% CO2 (Ren et al., 2012). The mice were then decapitated, and the entire brain was removed and immediately submerged in the cutting solution. Slices (250 μm) were cut with a Microm HM 650V vibratome (Thermo Scientific). Three brain slices containing the arcuate nucleus were obtained for each animal (Bregma −2.06 mm to −1.46 mm; Interaural 1.74 mm to 2.34 mm), and recordings were made at levels throughout this brain region. The slices were recovered for 1 h at 34° C. and then maintained at room temperature in artificial cerebrospinal fluid (aCSF, pH 7.3) containing 126 mM NaCl, 2.5 mM KCl, 2.4 mM CaCl2, 1.2 mM NaH2PO4, 1.2 mM MgCl2, 11.1 mM glucose, and 21.4 mM NaHCO3) saturated with 95% O2 and 5% CO2 before recording.
(§3) Slices were transferred to a recording chamber and allowed to equilibrate for at least 10 min before recording. The slices were superfused at 34° C. in oxygenated aCSF at a flow rate of 1.8-2 ml/min. GFP or TOMATO-labeled neurons in the ARH were visualized using epifluorescence and IR-DIC imaging on an upright microscope (Eclipse FN-1, Nikon) equipped with a moveable stage (MP-285, Sutter Instrument). Patch pipettes with resistances of 3-5 MΩ were filled with intracellular solution (pH 7.3) containing 128 mM K-Gluconate, 10 mM KCl, 10 mM HEPES, 0.1 mM EGTA, 2 mM MgCl2, 0.05 mM Na-GTP and 0.05 mM Mg-ATP. Recordings were made using a MultiClamp 700B amplifier (Axon Instrument), sampled using Digidata 1440A and analyzed offline with pClamp 10.3 software (Axon Instruments). Series resistance was monitored during the recording, and the values were generally <10 MΩ and were not compensated. The liquid junction potential was +12.5 mV, and was corrected after the experiment. Data were excluded if the series resistance increased dramatically during the experiment or without overshoot for action potential. Currents were amplified, filtered at 1 kHz, and digitized at 20 kHz. Current clamp was engaged to test neural firing frequency and resting membrane potential (RM) at the baseline and puff delivered recombinant Asprosin (500 ms at various concentrations indicated in the figures). For the asprosin antibody pre-incubation experiment, asprosin and anti-asprosin mAB or IgG were gently mixed at a 1:100 ratio, and then kept on ice for one hour before recording. After AgRP or POMC neuron response to asprosin alone was confirmed, the mixture of recombinant asprosin and anti-asprosin mAB or IgG was perfused to treat the AgRP or POMC neurons for 4 minutes. […]

human dermal fibroblasts = assay: Adipogenic differentiation of human dermal fibroblasts; assay type: cell-based
Protocol: Cell Culture—Human dermal fibroblasts isolated from NPS subjects or WT dermal fibroblasts from unaffected control subjects were subjected to adipogenic differentiation using standard protocols. […] Standard transfection methods with expression plasmids were used for in vitro transgenesis.
RNA and Protein Analysis—Standard RNA extraction procedures (RNeasy Mini Kit from Qiagen) were employed. Reverse transcription was carried out using the Superscript III kit (Invitrogen) using the manufacturer's protocol. For gene expression analysis, QPCR was performed using sequence-specific primers and probes from Roche (Universal Probe Library). TBP was used as an internal control for all gene-expression assays. Western blotting was performed using standard methods on plasma or cell culture media using a mouse monoclonal antibody directed against Asprosin, which was purchased from Abnova (Catalog #H00002200-M01). The mouse monoclonal antibody against fibrillin-1 was purchased from Abcam (Catalog #ab3090). […] At that time, media was concentrated using the Amicon Ultra-2 Centrifugal filter unit before proceeding with western blotting.

POMC neurons = assay: Whole-cell patch clamp recordings on POMC neurons; assay type: cell-based, mice
Protocol: as §1, §2, §3

hepatocyte surface = assay: Asprosin-biotin conjugate binding to the hepatocyte surface; parameters: species or system mouse; conditions: 100-fold excess
Protocol: Recombinant asprosin was conjugated with biotin using the Basic Biotinylation Sulfo-NHS Kit from Pierce. […] The cells were washed 3 times with PBS without lysis, followed by addition of streptavidin-HRP. The resulting absorbance was measured colorimetrically and the results were normalized to protein content.

[1] = rat, in vivo, iv

B1: recombinant asprosin: 146 amino acid E. coli expressed fusion protein: 6 amino acid N-terminal His tag and 140 amino acid wild type asprosin (FBN1 2732-2871) (protein)
chain: HHHHHHSTNETDASNIEDQSETEANVSLASWDVEKTAIFAFNISHVSNKVRILELLPALTTLTNHNRYLIESGNEDGFFKINQKEGISYLHFTKKKPVAGTYSLQISSTPLYKKKELNQLEDKYDKDYLSGELGDNLKMKIQVLLH
With B1 the “miniature excitatory post-synaptic current (mEPSC) of AgRP neurons” value (AgRP neurons) was “increased the amplitude but not frequency”, the “proportion of AgRP neurons asprosin-responsive” value (AgRP neurons) was “about 50%” and the “dose-dependency of AgRP neuron activation (firing frequency, membrane potential)” value (AgRP neurons; 0.01-100 nM, intact slices) was “dose-dependent activation”. The “asprosin-mediated activation with synaptic inputs pharmacologically inhibited” value (AgRP neurons; TTX or TTX + AP-5 + CNQX + bicuculline) was “no decrease in asprosin-mediated activation”, the “EC50 for AgRP neuron activation” value (AgRP neurons; firing frequency and membrane potential) was “nanomolar to subnanomolar range” and the “AgRP neuron firing frequency and membrane potential” value (AgRP neurons; recombinant asprosin puff) was “acutely induced their activation”. The “NPS associated fat differentiation and inflammogenic defects” value (human dermal fibroblasts; polypeptide added to the media of mutant cells (10 ug, 7 days), FIG. 15) was “rescued”, the “adipogenic differentiation in WT cells” value (human dermal fibroblasts; recombinant asprosin added to culture media (60 nanomolar), 7 days adipogenic induction, FIG. 4G) was “promoted adipogenic differentiation” and the “adipogenic defect in NPS mutant cells” value (human dermal fibroblasts; recombinant asprosin added to culture media (60 nanomolar), 7 days, FIG. 4H) was “sufficient to rescue the adipogenic defect”. The “miniature inhibitory post-synaptic current (mIPSC) in POMC neurons” value (POMC neurons) was “increased the frequency but not amplitude”, the “POMC neuron firing frequency with AgRP neuron ablation” value (POMC neurons; AgRP neuron ablated mice) was “little effect” and the “asprosin-mediated hyperpolarization in POMC neurons with AgRP neuron ablation” value (POMC neurons; AgRP neuron ablated mice) was “completely prevented”. The “POMC neuron hyperpolarization with blockade of glutamatergic inputs” value (POMC neurons; TTX + CNQX + AP5) was “did not affect”, the “ability to hyperpolarize POMC neurons, GABAergic input” value (POMC neurons; TTX + bicuculline) was “dependent on intact GABAergic input” and the “proportion of POMC neurons inhibited” value (POMC neurons; reduced resting membrane potential and firing frequency) was ~85%. The “competition of asprosin-biotin binding” value (hepatocyte surface) was “abolished the effect”, the “elevation in CSF asprosin” value [1] was 6 fold and the “his-tag signal in the CSF” value [1] was “strong his-tag signal”.
